Experimental data: patent publication US20210139581A1 (Alector, published 2021)
Where a chain is given by its changes, count along the chain named. Each block holds one binder with its values, some of them ahead of it.

Legend:
[1] = target: human CD33 on primary human monocyte-derived dendritic cells (human, UniProt P20138 18-364); test: cell-based or functional assay
[2] = target: T1, human CD33 (human, UniProt P20138 18-259, limits assumed); test: BLI (ForteBio), Fab 100 nM on immobilized CD33
T1 construct: Human CD33 immobilized on the BLI sensor tip or the BIAcore C1 chip; also called Siglec-3
T1 sequence (P20138 18-259 limits assumed): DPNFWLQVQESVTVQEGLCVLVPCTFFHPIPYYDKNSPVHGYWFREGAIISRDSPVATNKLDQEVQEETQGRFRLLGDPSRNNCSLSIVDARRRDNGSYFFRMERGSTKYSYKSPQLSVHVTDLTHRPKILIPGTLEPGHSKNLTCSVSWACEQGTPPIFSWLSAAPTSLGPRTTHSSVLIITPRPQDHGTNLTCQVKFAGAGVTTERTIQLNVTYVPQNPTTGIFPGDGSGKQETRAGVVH

[3] = target: T1, human CD33; test: BLI (ForteBio), Fab 100 nM on immobilized CD33; kon/koff columns printed 3 rows too low, assigned by koff/kon = printed KD of AB-63.6
Experimental: (§1) The affinities (KD) of the humanized antibodies for human CD33 were measured for each antibody by BioLayer Interferometry in a ForteBio assay according to standard techniques (Estep et al. (2013) MAbs 5(2): 270-8). […] The assay was carried out at room temperature.
(§2) The affinities of AB-H14 and its affinity-matured variants (Table 15) and AB-H63 and its affinity-matured variants (Table 16), for human CD33 were measured by Fortebio assay according to the method described in Example 1 above.

[4] = target: T1, human CD33; test: BLI (ForteBio), Fab 100 nM on immobilized CD33; kon/koff columns printed 3 rows too low, assigned by koff/kon = printed KD of AB-63.11
Experimental: as §1, §2

[5] = target: T1, human CD33; test: BLI (ForteBio), Fab 100 nM on immobilized CD33; kon/koff columns printed 3 rows too low, assigned by koff/kon = printed KD of AB-63.13
Experimental: as §1, §2

[6] = target: T1, human CD33; test: BLI (ForteBio), Fab 100 nM on immobilized CD33; kon/koff columns printed 3 rows too low, assigned by koff/kon = printed KD of AB-63.7
Experimental: as §1, §2

[7] = target: T1, human CD33; test: BLI (ForteBio), Fab 100 nM on immobilized CD33; kon/koff columns printed 3 rows too low, assigned by koff/kon = printed KD of AB-63.8
Experimental: as §1, §2

[8] = target: T1, human CD33; test: BLI (ForteBio), Fab 100 nM on immobilized CD33; kon/koff columns printed 3 rows too low, assigned by koff/kon = printed KD of AB-63.10
Experimental: as §1, §2

[9] = target: T1, human CD33; test: BLI (ForteBio), Fab 100 nM on immobilized CD33; kon/koff columns printed 3 rows too low, assigned by koff/kon = printed KD of AB-63.12
Experimental: as §1, §2

[10] = target: T1, human CD33; test: BLI (ForteBio), Fab 100 nM on immobilized CD33; kon/koff columns printed 3 rows too low, assigned by koff/kon = printed KD of AB-63.14
Experimental: as §1, §2

[11] = target: T1, human CD33; test: BLI (ForteBio), Fab 100 nM on immobilized CD33; kon/koff columns printed 3 rows too low, assigned by koff/kon = printed KD of AB-63.15
Experimental: as §1, §2

[12] = target: T1, human CD33; test: BLI (ForteBio), Fab 100 nM on immobilized CD33; kon/koff columns printed 3 rows too low, assigned by koff/kon = printed KD of AB-63.9
Experimental: as §1, §2

Chain of human CD33 on primary human monocyte-derived dendritic cells (P20138 18-364): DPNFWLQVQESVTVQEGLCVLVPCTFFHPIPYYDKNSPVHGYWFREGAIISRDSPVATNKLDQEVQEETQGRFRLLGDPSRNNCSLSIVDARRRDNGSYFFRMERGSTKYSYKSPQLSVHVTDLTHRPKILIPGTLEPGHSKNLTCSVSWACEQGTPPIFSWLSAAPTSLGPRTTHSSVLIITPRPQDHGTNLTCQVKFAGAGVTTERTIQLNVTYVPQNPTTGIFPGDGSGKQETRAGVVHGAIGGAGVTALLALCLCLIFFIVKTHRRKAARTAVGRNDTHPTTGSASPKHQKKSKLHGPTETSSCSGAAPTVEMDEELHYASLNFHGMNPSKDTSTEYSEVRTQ

B1: AB-63.6 (antibody, V domains shown)
VH: QVQLVQSGAEVKKPGASVKVSCKASGYTFTDYNLHWVRQAPGQGLEWIGFIYPSNGITGYAQKFQGRVTMTVDTSTSTVYMELSSLRSEDTAVYYCARSTVDYFDYWGQGTLVTVSS
VL: DIVLTQSPDSLAVSLGERATINCRASQDVSTSTYSYMHWYQQKPGQPPKLLIKYASNLESGVPDRFSGSGSGTDFTLTISSLQAEDVAVYYCQHSWEIPLTFGQGTKLEIK
- Maximal Downregulation (% CD33 remaining) [1]: 17.1%
- Receptor downregulation (EC50) [1]: 0.0463 nM
- Fold affinity improvement over parental Ab (AB-H63) [2]: 8.96 fold
- Kd [2]: 0.304 nM
- koff [3]: 0.0002 s⁻¹
- kon [3]: 658000 M⁻¹ s⁻¹

B2: AB-63.11 (antibody, V domains shown)
VH: B1 VH with L34F, S54A, F64D, T100D
VL: B1 VL
- Maximal Downregulation (% CD33 remaining) [1]: 23%
- Receptor downregulation (EC50) [1]: 0.044 nM
- Fold affinity improvement over parental Ab (AB-H63) [2]: 7.09 fold
- Kd [2]: 0.384 nM
- koff [4]: 0.000322 s⁻¹
- kon [4]: 839000 M⁻¹ s⁻¹

B4: AB-63.7 (antibody, V domains shown)
VH: B1 VH
VL: B1 VL with S56F, T101E
- Maximal Downregulation (% CD33 remaining) [1]: 18.4%
- Receptor downregulation (EC50) [1]: 0.0416 nM
- Fold affinity improvement over parental Ab (AB-H63) [2]: 2.97 fold
- Kd [2]: 0.917 nM
- koff [6]: 0.000546 s⁻¹
- kon [6]: 596000 M⁻¹ s⁻¹

B6: AB-63.10 (antibody, V domains shown)
VH: B1 VH with F29E, T100D
VL: B1 VL with I98L
- Maximal Downregulation (% CD33 remaining) [1]: 21.2%
- Receptor downregulation (EC50) [1]: 0.0418 nM
- Fold affinity improvement over parental Ab (AB-H63) [2]: 5.84 fold
- Kd [2]: 0.466 nM
- koff [8]: 0.000336 s⁻¹
- kon [8]: 721000 M⁻¹ s⁻¹

B7: AB-63.12 (antibody, V domains shown)
VH: B1 VH with L34F, Q65T, Y106D
VL: B1 VL with L58V, E97A
- Maximal Downregulation (% CD33 remaining) [1]: 27.5%
- Receptor downregulation (EC50) [1]: 0.035 nM
- Fold affinity improvement over parental Ab (AB-H63) [2]: 9.84 fold
- Kd [2]: 0.277 nM
- koff [9]: 0.0002 s⁻¹
- kon [9]: 723000 M⁻¹ s⁻¹

B8: AB-63.14 (antibody, V domains shown)
VH: B1 VH with A16S, T100D
VL: B1 VL with N22D, R24K
- Maximal Downregulation (% CD33 remaining) [1]: 25.3%
- Receptor downregulation (EC50) [1]: 0.0519 nM
- Fold affinity improvement over parental Ab (AB-H63) [2]: 11.2 fold
- Kd [2]: 0.244 nM
- koff [10]: 0.0002 s⁻¹
- kon [10]: 819000 M⁻¹ s⁻¹

B10: AB-63.9 (antibody, V domains shown)
VH: B1 VH with T28A, T100D
VL: B1 VL with N57Y, Q93E
- Maximal Downregulation (% CD33 remaining) [1]: 20.1%
- Receptor downregulation (EC50) [1]: 0.0407 nM
- Fold affinity improvement over parental Ab (AB-H63) [2]: 10.1 fold
- Kd [2]: 0.271 nM
- koff [12]: 0.0002 s⁻¹
- kon [12]: 738000 M⁻¹ s⁻¹

Now those with a lower Kd [2], led by results:

- Maximal Downregulation (% CD33 remaining) [1]: 25.5%
- Receptor downregulation (EC50) [1]: 0.0448 nM
- Fold affinity improvement over parental Ab (AB-H63) [2]: 12.1 fold
- Kd [2]: 0.225 nM
- koff [5]: 0.00023 s⁻¹
- kon [5]: 1.02e+06 M⁻¹ s⁻¹
B3: AB-63.13 (antibody, V domains shown)
VH: B1 VH with T58R, T100D
VL: B1 VL with D28S, W96E

- Maximal Downregulation (% CD33 remaining) [1]: 22%
- Receptor downregulation (EC50) [1]: 0.0167 nM
- Fold affinity improvement over parental Ab (AB-H63) [2]: 12.4 fold
- Kd [2]: 0.219 nM
- koff [7]: 0.0002 s⁻¹
- kon [7]: 913000 M⁻¹ s⁻¹
B5: AB-63.8 (antibody, V domains shown)
VH: B1 VH with A16S, Y27V, L34Y, G66D
VL: B1 VL

- Maximal Downregulation (% CD33 remaining) [1]: 27.5%
- Receptor downregulation (EC50) [1]: 0.0476 nM
- Fold affinity improvement over parental Ab (AB-H63) [2]: 12.1 fold
- Kd [2]: 0.225 nM
- koff [11]: 0.000204 s⁻¹
- kon [11]: 903000 M⁻¹ s⁻¹
B9: AB-63.15 (antibody, V domains shown)
VH: B1 VH with L34Y, T100D, Y106L
VL: B1 VL with L58V, K111E
